Results reported in publication PMC10899662, “TopBP1 utilises a bipartite GINS binding mode to support genome replication” (Nature Communications, 2024).
Residues, ends and D or L forms follow the SMILES beside them. No end group written: not given here. *: point of attachment. 5FAM = O=C1OC2(c3ccc(O)cc3Oc3cc(O)ccc32)c2ccc(C(=O)*)cc21; Flu = fluorescein

Assays:
GINS tetramer = biological target: T1, GINS tetramer (Homo sapiens, UniProt Q14691+Q9BRT9+Q9BRX5+Q9Y248); experiment: Fluorescence polarisation of fluorescein-labelled GINI-core peptides with GINS; format: binding; conditions: room temperature
T1 construct: made in house; host or cells: SF9 insect cells, single baculovirus made with pBig1a
Description: As the predicted interface between the TopBP1-GINI region and GINS[32] was not evident in our cryo-EM map we used additional interaction experiments to validate a role for this motif in GINS binding. The GINI region had been loosely defined as sitting between TopBP1-BRCT3 and BRCT4 (Fig. 1a(i)). […] We mutated this core, and other regions of conservation, to generate the mutants TopBP1-Gcc (GINI centre core), Gcore (GINI core) and RI-III (regions I-III) (Fig. 3a, Supplementary Fig. 7). […] To test if this helix constituted a GINS-interaction surface, we used fluorescence polarisation (FP). A fluorescently labelled GINI-core peptide (Ala478-Gly497) bound the GINS tetramer with a dissociation constant of Kd of ~8 µM (Fig. 3d). […] We therefore concluded that the GINI region is a GINS interaction site in its own right, but with moderate binding affinity.
Fig. 3 The conserved core of the TopBP1-GINI domain is required for a stable interaction with GINS. a Domain model and T-COFFEE alignment (one-letter aa code) of TopBP1 proteins from humans (Q92547) Xenopus laevis (Q7ZZY3), Bos taurus (A0A3Q1LWE4) and Rattus norvegicus (A0A8I6GFZ6). […] Source data are provided as a Source data file. d Fluorescence polarisation measurements including dissociation constants (kD) calculations using recombinant GINS tetramer and fluorescently labelled TopBP1-GINI-core peptides (WT or Gpp (a)). […]

[1] = biological target: GINS (6xHis-3xFlag-Sld5, Psf1, Psf2, Psf3) for pulldown experiments (UniProt Q9BRT9)
GINS complex = experiment: Size exclusion chromatography co-elution with GINS; format: binding; conditions: Superdex200; 20 µM of each component; 10 mM HEPES pH 7.5, 150 mM NaCl, 0.5 mM TCEP
Method: Recombinant TopBP1 and GINS proteins were mixed in an equimolar ratio to give a final concentration of 20 µM of each component and incubated on ice for at least 30 min prior to application to a Superdex200increase 10 300 column (GE Healthcare, Little Chalfont, UK) equilibrated in 10 mM HEPES pH 7.5, 150 mM NaCl, 0.5 mM TCEP.

GINS = experiment: Pulldown of recombinant TopBP1-BRCT0-5 by immobilised GINS, 150 mM NaCl; format: binding; conditions: summary of recombinant protein interaction tests (yes/no)
Description: Fig. 1 GINS and TopBP1 interact. a (i) Domain model of human (hs) TopBP1, its conservation with BRCT1/2 and 3/4 domains (grey boxes) of budding yeast Dpb11 (scDpb11). Arrows point to binding domains for interacting proteins. (ii) Overview of TopBP1 wild type (WT) and BRCT deletion (Δ) and point mutants. GINS binding capabilities are labelled in red and green. Numbers, amino acid position; capital letters indicate amino acid substitutions. Amino acid substitutions of point mutants in BRCT4 (B4mut) and 5 (B5mut) are coloured orange. b Elution profiles of size exclusion chromatography (Superdex200) of individual recombinant TopBP1-BRCT0-5 protein (grey) and GINS tetramers (green), or of both upon incubation (blue). c Recombinant GINS immobilised on Flag-beads and control beads (Flag peptide-coupled beads) were used to pull down recombinant TopBP1-0-5-WT or TopBP1-ΔBRCT4/5 (compare a(ii)). SDS gels were silver stained. kDa specifies molecular weight marker bands. The experiment was done more than three times with similar results. Source data are provided as a Source data file. TEXT PRINTED IN THE PICTURE: (a) BRCT0-5-WT: GINS binding? (rec. proteins): yes | (a) ΔBRCT4/5: GINS binding? (rec. proteins): no | (a) ΔBRCT3: GINS binding? (rec. proteins): yes | (a) ΔBRCT0/1/2: GINS binding? (rec. proteins): yes | (a) B5mut: GINS binding? (rec. proteins): yes | (a) B4mut: GINS binding? (rec. proteins): no
Fig. 2 Protein structure of the GINS-TopBP1-BRCT4/5 complex. a Structural model of the GINS-TopBP1-BRCT4/5 complex. Crystal structures of the GINS subunits (PDB:2E9X) (shades of green, yellow), and the central BRCT4/5 domain of TopBP1 (PDB:3UEN) (grey) were docked into the cryo-EM volume shown as transparent volume. b Zoom-in of the BRCT4-Psf1 interface. The residues in stick representation appear crucial for the interface. Mutations to break the interaction are coloured pink (Psf1-I97R) and purple (TopBP1-B4mut; compare Fig. 1a(ii)). c Pulldown of the indicated recombinant TopBP1-BRCT0-5-strep versions (see Fig. 1a(ii)) by Flag-beads-immobilised recombinant GINS or Flag peptide-coupled control beads. Analysis was done by immunoblotting. The experiment was done more than three times with similar results. d Pulldown of the indicated recombinant TopBP1-BRCT0-5-WT-strep using immobilised GINS-WT or GINS carrying a Ile97 to arginine mutation in Psf1.TopBP1-Gcc/B4mut-strep (Figs. 1a(ii) and 3a) was used as a non-GINS binding control. The experiment was done twice with similar results. Source data are provided as a Source data file.
Fig. 3 The conserved core of the TopBP1-GINI domain is required for a stable interaction with GINS. a Domain model and T-COFFEE alignment (one-letter aa code) of TopBP1 proteins from humans (Q92547) Xenopus laevis (Q7ZZY3), Bos taurus (A0A3Q1LWE4) and Rattus norvegicus (A0A8I6GFZ6). Coloured boxes indicate GINI region mutants in sub-regions I (blue), II (green) and III (orange), and in the GINI core helix (red) (details in Supplementary Fig. 7). Amino acid substitutions, names of GINI core region mutations and corresponding GINS binding capabilities are shown. ., : and * indicate low conservation, high conservation and identical amino acids, respectively. b/c Pulldown of recombinant TopBP1-BRCT0-5-strep-WT or the indicated GINI region mutants (a) by bead-immobilised GINS or Flag peptide-coupled control beads. Analysis was done by immunoblotting. The experiments were done more than three times with similar results. Source data are provided as a Source data file. d Fluorescence polarisation measurements including dissociation constants (kD) calculations using recombinant GINS tetramer and fluorescently labelled TopBP1-GINI-core peptides (WT or Gpp (a)). For each peptide n = 3 independent experiments and data are presented as mean values +/−SEM. TEXT PRINTED IN THE PICTURE: (a) TopBP1-Gcc: GINS binding? (rec. proteins): no | (a) TopBP1-Gcore: GINS binding? […]

[2] = biological target: T2, GINS (HIS-(3C)-Sld5, Psf1, Psf2, Psf3) for structural and fluorescence polarisation studies (UniProt Q9BRT9 1-223; Q14691 1-196; Q9Y248 1-185; Q9BRX5 1-216); experiment: fluorescence polarisation; 100 nM fluorescein-labelled peptide, increasing concentrations of GINS; 25 mM HEPES pH 7.5, 150 mM NaCl, 1 mM EDTA, 0.25 mM TCEP, 0.02% Tween 20; room temperature; conditions: both partners purified
T2 construct: Sld5 subunit of GINS; Psf1 subunit of GINS, with its B domain; Psf2 subunit of GINS; Psf3 subunit of GINS; A 3C site follows the His tag on Sld5; no cleavage is described; also called GINS tetramer; GINS complex; source: Sf9 insect cells, single baculovirus (pBig1a), purified (TALON, Superdex200); copies: + + +
T2 sequence (Q9BRT9 whole entry, chain 1 of 4): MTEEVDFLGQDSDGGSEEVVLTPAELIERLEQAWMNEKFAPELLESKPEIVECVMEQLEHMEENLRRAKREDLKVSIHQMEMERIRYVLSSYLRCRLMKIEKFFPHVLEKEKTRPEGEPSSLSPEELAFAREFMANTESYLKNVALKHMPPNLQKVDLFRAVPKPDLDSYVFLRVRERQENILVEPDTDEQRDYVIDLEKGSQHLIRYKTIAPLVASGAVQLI
T2 sequence (Q14691 whole entry, chain 2 of 4): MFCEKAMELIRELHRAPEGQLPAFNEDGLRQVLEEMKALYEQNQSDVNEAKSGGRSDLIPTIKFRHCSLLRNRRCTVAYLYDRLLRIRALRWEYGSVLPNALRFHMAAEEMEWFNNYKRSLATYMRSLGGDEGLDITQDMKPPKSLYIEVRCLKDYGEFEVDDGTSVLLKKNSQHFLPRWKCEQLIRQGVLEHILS
T2 sequence (Q9Y248 whole entry, chain 3 of 4): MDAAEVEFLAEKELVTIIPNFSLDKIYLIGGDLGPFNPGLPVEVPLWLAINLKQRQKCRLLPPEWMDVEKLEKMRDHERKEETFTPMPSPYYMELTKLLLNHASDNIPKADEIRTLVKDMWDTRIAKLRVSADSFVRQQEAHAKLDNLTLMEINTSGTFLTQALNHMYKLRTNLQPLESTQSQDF
T2 sequence (Q9BRX5 whole entry, chain 4 of 4): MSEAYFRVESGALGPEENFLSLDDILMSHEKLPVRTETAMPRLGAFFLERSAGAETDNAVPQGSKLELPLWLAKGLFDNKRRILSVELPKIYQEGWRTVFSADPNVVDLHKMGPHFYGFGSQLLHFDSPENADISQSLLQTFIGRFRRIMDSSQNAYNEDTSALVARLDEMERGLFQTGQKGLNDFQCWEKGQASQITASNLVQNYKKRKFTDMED

T1 sequence (Q14691 whole entry): as the sequence (Q14691 whole entry, chain 2 of 4) above
T1 sequence (Q9BRX5 whole entry): as the sequence (Q9BRX5 whole entry, chain 4 of 4) above
T1 sequence (Q9Y248 whole entry partner): as the sequence (Q9Y248 whole entry, chain 3 of 4) above
T1 sequence (Q9BRT9 whole entry partner): as the sequence (Q9BRT9 whole entry, chain 1 of 4) above
Sequence of GINS (6xHis-3xFlag-Sld5, Psf1, Psf2, Psf3) for pulldown experiments (Q9BRT9 whole entry, chain 1 of 4): as above
Sequence of GINS (6xHis-3xFlag-Sld5, Psf1, Psf2, Psf3) for pulldown experiments (Q14691 whole entry, chain 2 of 4, further chain): as the sequence (Q14691 whole entry, chain 2 of 4) above
Sequence of GINS (6xHis-3xFlag-Sld5, Psf1, Psf2, Psf3) for pulldown experiments (Q9Y248 whole entry, chain 3 of 4, further chain): as the sequence (Q9Y248 whole entry, chain 3 of 4) above
Sequence of GINS (6xHis-3xFlag-Sld5, Psf1, Psf2, Psf3) for pulldown experiments (Q9BRX5 whole entry, chain 4 of 4, further chain): as the sequence (Q9BRX5 whole entry, chain 4 of 4) above

CC(C)C[C@H](NC(=O)[C@H](CC(=O)O)NC(=O)[C@H](CCC(=O)O)NC(=O)[C@H](CC(=O)O)NC(=O)[C@H](C)NC(=O)[C@H](CCC(N)=O)NC(=O)[C@H](CCC(=O)O)NC(=O)[C@H](Cc1c[nH]cn1)NC(=O)[C@H](CCCCN)NC(=O)[C@H](CCC(=O)O)NC(=O)[C@H](CO)NC(=O)[C@@H]1CCCN1C(=O)[C@H](C)NC(=O)CNC(=O)[C@H](Cc1ccc(O)cc1)NC(=O)CNC(=O)c1ccc2c(c1)C(=O)OC21c2ccc(O)cc2Oc2cc(O)ccc21)C(=O)N[C@@H](CC(C)C)C(=O)N[C@@H](CO)C(=O)N[C@@H](CCC(N)=O)C(=O)N[C@@H](Cc1ccc(O)cc1)C(=O)N[C@@H](CCC(=O)O)C(=O)N[C@@H](CC(N)=O)C(=O)NCC(=O)O [TOPBP1(478-497)] (5FAM-GYGAPSEKHEQADEDLLSQYENG-OH)
Kd (GINS tetramer; fluorescein-labelled peptide 100 nM, increasing GINS, 25 mM HEPES pH 7.5, 150 mM NaCl, 1 mM EDTA, 0.25 mM TCEP, 0.02% Tween 20, n = 3 independent experiments, interval printed in figure (7.037 - 8.809), read-out: dissociation constant Kd (fluorescence polarisation)): 7.88 µM

Flu-GYGAPSEKHEQADEDPPSQYENG [TOPBP1(478-497) L490P L491P, fluorescein-labelled GINI-core peptide with LL to PP mutation]
binding to GINS by fluorescence polarisation (GINS tetramer; peptide 100 nM, 150 mM NaCl, n = 3): failed to bind

TopBP1-BRCT0-5-Gcc (from UniProt Q92547 1-766) (domain or fragment)
reduction of nucleotide incorporation (α-32P-dCTP) in TopBP1-depleted Xenopus egg extract after add-back, 120 min time point [1]: 21%

B1: TopBP1-ΔBRCT0/1/2: TopBP1-BRCT0-5 with BRCT0-2 module removed (protein)
chain: NSLNSKLEPTLENLENLDVSAFQAPEDLLDGCRIYLCGFSGRKLDKLRRLINSGGGVRFNQLNEDVTHVIVGDYDDELKQFWNKSAHRPHVVGAKWLLECFSKGYMLSEEPYIHANYQPVEIPVSHKPESKAALLKKKNSSFSKKDFAPSEKHEQADEDLLSQYENGSSTVVEAKTSEARPFNDSTHAEPLNDSTHISLQEENQSSVSHCVPDVSTITEEGLFSQKSFLVLGFSNENESNIANIIKENAGKIMSLLSRTVADYAVVPLLGCEVEATVGEVVTNTWLVTCIDYQTLFDPKSNPLFTPVPVMTGMTPLEDCVISFSQCAGAEKESLTFLANLLGASVQEYFVRKSNAKKGMFASTHLILKERGGSKYEAAKKWNLPAVTIAWLLETARTGKRADESHFLIENSTKEERSLETEITNGINLNSDTAEHP
modifications: left off: His, N-terminal, state not stated | Strep, C-terminal, state not stated
notes: TopBP1-BRCT0-5 with BRCT0-2 module removed
co-elution with GINS from size exclusion column (GINS complex): did not affect binding | GINS binding? (rec. proteins) (GINS): yes

B2: fluorescently labelled GINI-core peptide (Ala478-Gly497), WT (peptide)
peptide: Flu-GYGAPSEKHEQADEDLLSQYENG
modifications: not fully specified; printed as Flu-GYGAPSEKHEQADEDLLSQYENG
notes: three residues printed before the TopBP1 stretch Ala478-Gly497; human TopBP1 GINI core, Ala478-Gly497; also called TopBP1-GINI-core peptide WT; source: synthetic peptide (Peptide Protein Research Ltd)
Kd [2]: ~8 µM
